Results on two molecules are retold here after article PMC7870846, “Incorporation of sensing modalities into de novo designed fluorescence-activating proteins” (Nature Communications, 2021).

Assay [1] in a line: Ca2+-responsive mFAP DFHBI titrations. In kind it is binding. Particulars: in the presence of excess Ca2+ (Kd+). The protocol: Final volumes were 25.0 μL in flat bottom, black polystyrene, non-binding surface 96-well half-area microplates (Corning 3686) or 200 μL in flat bottom, black polystyrene, non-binding surface 96-well microplates (Corning 3650). Fluorescence endpoints were measured using excitation wavelength λex = 488 nm and emission wavelength λem = 510 nm. Background fluorescence endpoints of wells with identical chromophore concentrations lacking protein (substituted for equivalent volumes of high-salt Tev cleavage buffer) were measured and subtracted from protein measurements prior to normalization.
For DFHBI titrations of EF4n_mFAP2a and EF4n_mFAP2b (Supplementary Fig. 13a, b), a small amount of Chelex 100 sodium form (Sigma Aldrich) was added to purified protein (produced by large-scale protein purification and SEC purification[49]) and nutated at 4 °C overnight. […] Fluorescence endpoints were measured using excitation wavelength λex = 488 nm and emission wavelength λem = 510 nm for EF4n_mFAP2b, and excitation wavelength λex = 478 nm and emission wavelength λem = 520 nm for EF4n_mFAP2a. Background fluorescence endpoints of wells with identical chromophore concentrations lacking protein (substituted for equivalent volumes of Chelex 100 pre-treated high-salt Tev cleavage buffer) were measured and subtracted from protein measurements prior to normalization.

The nature of assay [2]: Ca2+-responsive mFAP Ca2+ titrations. The format is binding. Particulars: in the presence of excess DFHBI. The protocol: In measuring Ca^2+ affinity of mFAPs on a Synergy Neo2 hybrid multi-mode reader (Fig. 4d, e, f and Supplementary Figs. 10c, f, i, 11c, f, i, 13c, f, i, 16b), large-scale purified proteins[49] were aliquoted in technical triplicate to a final concentration of 500 nM with 5.00 μM DFHBI in eleven serial dilutions ( 10 dilution factor) of CaCl2 (Sigma Aldrich) starting from either 900 mM or 90.0 mM CaCl2 (diluted using high-salt Tev cleavage buffer) including a twelfth condition without CaCl2. Final volumes were 200 μL in flat bottom, black polystyrene, non-binding surface 96-well microplates (Corning 3650). Fluorescence endpoints were measured using excitation wavelength λex = 484 nm and emission wavelength λem = 508 nm. Background fluorescence endpoints of wells with identical chromophore and CaCl2 concentrations lacking protein (substituted for equivalent volumes of high-salt Tev cleavage buffer) were measured in technical triplicate, averaged per condition, and subtracted from protein measurement averages of the same conditions.
For Ca^2+ titrations of EF4n_mFAP2a and EF4n_mFAP2b (Supplementary Fig. 13c), a small amount of Chelex 100 sodium form (Sigma Aldrich) was added to purified protein (produced by large-scale protein purification and SEC purification[49]) and nutated at 4 °C overnight. EF4n_mFAP2a was aliquoted in technical triplicate to a final concentration of 8.00 μM with 80.0 μM DFHBI and EF4n_mFAP2b was aliquoted in technical triplicate to a final concentration of 6.25 μM with 43.4 μM DFHBI, in eleven serial dilutions ( 10 dilution factor) of CaCl2 starting from 9.00 mM or 4.00 mM CaCl2 (diluted using high-salt Tev cleavage buffer pre-treated with Chelex 100) including a twelfth condition without CaCl2. Final volumes were 25.0 μL in flat bottom, black polystyrene, non-binding surface 96-well half-area microplates (Corning 3686) or 200 μL in flat bottom, black polystyrene, non-binding surface 96-well microplates (Corning 3650). Fluorescence endpoints were measured for EF4n_mFAP2a using excitation wavelength λex = 478 nm and emission wavelength λem = 520 nm, and for EF4n_mFAP2b using excitation wavelength λex = 484 nm and emission wavelength λem = 508 nm. Background fluorescence endpoints of wells with identical chromophore and CaCl2 concentrations lacking protein (substituted for equivalent volumes of high-salt Tev cleavage buffer) were measured in technical triplicate, averaged per condition, and subtracted from protein measurement averages of the same conditions. For non-linear least squares fitting to obtain Kd values, means were fit to a single-binding site isotherm function where Ca^2+-binding sites were modeled independently with a Hill coefficient of 1.

A further assay has as its system HEK293 cells. The assay is described as follows: HEK293 cell surface-displayed Ca2+ titrations. Particulars: Ca2+ from 0 to 10 mM; 7.00 µM DFHBI; extracellular display. The format is cell-based. The procedure: Plasmid DNAs (Supplementary Data 15 and Supplementary Data 17) were purified in ddH2O for transfections. pGP-CMV-GCaMP6f was a gift from Douglas Kim & GENIE Project (Addgene plasmid #40755; [http://n2t.net/addgene:40755]; RRID: Addgene_40755). Wild-type HEK293 cells (ATCC CRL-1573) were cultured on 24-well plates in DMEM media (4.5 g L^−1 D-glucose, L-glutamine; ThermoFisher #11965-092) supplemented with 10% FBS and 1% Penicillin/Streptomycin in a 5% CO2 atmosphere at 37 °C. Cells were seeded into 24-well plates (ThermoFisher #FB012929) at 100,000 cells well^−1. Twenty-four hours after seeding, cell media was aspirated and replaced with 200 μL of DMEM media. […]
Data analysis: Regions of interest (ROIs) surrounding single cells from three technical replicates were hand-drawn in ImageJ software. For each cellular ROI in each frame the average fluorescence was calculated in ImageJ. In order to perform background subtraction, cellular ROIs were then moved proximal to the original cell to an ROI where there was no fluorescence. Each cellular ROIs average fluorescence had the average background intensity subtracted for each frame. […]

B1: EF1p2_mFAP2b (K101A): K101A lysine-to-alanine substitution in EF1p2_mFAP2b (protein)
chain: SRAAQLLPGTWQVTMTNEDGQTSQGQWHFQPRSPYTMDIVAQGTISDGRPIVGYGKATVKTPDTLDIDITYPSLGNIKAQGQITMDSPTQFKWDAHYKGDADGDGYISAAEAAAQGLTGTLQRQE
Take B1: the “reduction of DFHBI affinity compared with EF1p2_mFAP2b” value in assay [1] was ~ 21 fold. Moreover, the “reduction of Ca2+ affinity compared with EF1p2_mFAP2b” value in assay [2] is listed as ~ 29 fold.

B2: EF1p_mFAP2b: positively allosteric Ca2+-responsive mFAP, one EF-hand motif (protein)
chain: SRAAQLLPGTWQVTMTNEDGQTSQGQWHFQPRSPYTMDIVAQGTISDGRPIVGYGKATVKTPDTLDIDITYPSLGNIKAQGQITMDSPTQFKWDAHYKGDKDGDGYISAAEAAAQILTGTLQRQE
On to B2, for which the “fluorescence fold-change (ΔF/F0)” value in the assay with HEK293 cells is ~ 0.5.
